Data: paper PMC3678298, “Catalytic preference of Salmonella typhimurium LT2 sialidase for N-acetylneuraminic acid residues over N-glycolylneuraminic acid residues^” (FEBS Open Bio, 2013)

Test system: Cc1cc(=O)oc2cc(O[C@@]3(C(=O)O)C[C@H](O)[C@@H](NC(=O)CO)[C@H]([C@H](O)[C@H](O)CO)O3)ccc12
Assay: purified protein
Settings: 80 mM sodium acetate pH 6.0, 80 mM NaCl, 0.8 mg/ml BSA, 37 °C, 10 mU/ml enzyme
Source text: 4MU fluorescence; Lineweaver-Burk on STSA (Salmonella typhimurium LT2 sialidase)

STSA (Salmonella typhimurium LT2 sialidase) (Salmonella enterica subsp. enterica serovar Typhimurium str. LT2)
Km: 3.10 mM | kcat: 40 s⁻¹ | kcat/Km: 13100 M⁻¹ s⁻¹
